Experimental data: patent US20250264455

Target: T1, P2-TmEnc^BC2-Tag
T1 chain: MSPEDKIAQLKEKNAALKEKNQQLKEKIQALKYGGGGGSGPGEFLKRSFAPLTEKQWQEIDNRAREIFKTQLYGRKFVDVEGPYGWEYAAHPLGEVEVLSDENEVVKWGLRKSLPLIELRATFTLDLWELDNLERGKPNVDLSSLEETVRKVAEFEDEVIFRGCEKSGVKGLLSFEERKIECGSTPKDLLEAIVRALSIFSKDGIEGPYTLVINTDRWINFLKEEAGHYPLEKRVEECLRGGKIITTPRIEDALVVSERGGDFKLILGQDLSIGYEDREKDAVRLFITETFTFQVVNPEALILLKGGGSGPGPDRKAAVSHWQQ

B1: BmTyr-P1 (protein)
chain: MGHSNKYRVRKNVLHLTDTEKRDFVRTVLILKEKGIYDRYIAWHGAAGKFHTPPGSDRNAAHMSSAFLPWHREYLLRFERDLQSINPEVTLPYWEWETDAQMQDPSQSQIWSADFMGGNGNPIKDFIVDTGPFAAGRWTTIDEQGNPSGGLKRNFGATKEAPTLPTRDDVLNALKITQYDTPPWDMTSQNSFRNQLEGFINGPQLHNRVHRWVGGQMGVVPTAPNDPVFFLHHANVDRIWAVWQIIHRNQNYQPMKNGPFGQNFRDPMYPWNTTPEDVMNHRKLGYVYDIELRKSKRSSGGGGSGGGGSTGSPEDEIQALEEENAQLEQENAALEEEIAQLEYGSGSETPGTSESATPESAISHGFPPEVEEQAAGTLPMSCAQESGMDRHPAACASARINV
melanin formation on CN-PAGE: melanin formation could be demonstrated by color formation on CN-PAGE | melanin formation on clear native PAGE: The dark high molecular weight bands at 1.0 MDa represent melanin-loaded TmEnc nanospheres
